Assay results as given in IntAct's records for PubMed 23066109.

B1: Tudor domain-containing protein 3 (Homo sapiens), Q9H7E2 (parent)
chain: MLRLQMTDGHISCTAVEFSYMSKISLNTPPGTKVKLSGIVDIKNGFLLLNDSNTTVLGGEVEHLIEKWELQRSLSKHNRSNIGTEGGPPPFVPFGQKCVSHVQVDSRELDRRKTLQVTMPVKPTNDNDEFEKQRTAAIAEVAKSKETKTFGGGGGGARSNLNMNAAGNRNREVLQKEKSTKSEGKHEGVYRELVDEKALKHITEMGFSKEASRQALMDNGNNLEAALNVLLTSNKQKPVMGPPLRGRGKGRGRIRSEDEEDLGNARPSAPSTLFDFLESKMGTLNVEEPKSQPQQLHQGQYRSSNTEQNGVKDNNHLRHPPRNDTRQPRNEKPPRFQRDSQNSKSVLEGSGLPRNRGSERPSTSSVSEVWAEDRIKCDRPYSRYDRTKDTSYPLGSQHSDGAFKKRDNSMQSRSGKGPSFAEAKENPLPQGSVDYNNQKRGKRESQTSIPDYFYDRKSQTINNEAFSGIKIEKHFNVNTDYQNPVRSNSFIGVPNGEVEMPLKGRRIGPIKPAGPVTAVPCDDKIFYNSGPKRRSGPIKPEKILESSIPMEYAKMWKPGDECFALYWEDNKFYRAEVEALHSSGMTAVVKFIDYGNYEEVLLSNIKPIQTEAWEEEGTYDQTLEFRRGGDGQPRRSTRPTQQFYQPPRARN

Variants of: B1
Settings: with rpb1_human POLR2A

**Q.** D569A was tested. Which “effect of a mutation on the interaction” value did it give?
**A.** The value was “disrupting interaction”.

**Q.** How did the “effect of a mutation on the interaction” value turn out when W567S was run?
**A.** Its value is “decreasing interaction”.

**Q.** Y566F was tested. Which “effect of a mutation on the interaction” value did it give?
**A.** The value was “disrupting interaction”.

**Q.** With Y566W as the variant, how does the “effect of a mutation on the interaction” value read?
**A.** Its value is “increasing interaction”.

Variants of: B1
Settings: with rpb1_human POLR2A
Remark: another data set of the same source

**Q.** Y566F was tested. Which “effect of a mutation on the interaction” value did it give?
**A.** The value was “with no effect”.
